Read-outs that look alike come from different tables or passages of the source.
T1: Human IL-23 (human, UniProt Q9NPF7 20-189; P29460 23-328)
T1 construct: Disulphide-linked p19/p40 heterodimer, recombinant, made in-house; also called recombinant human IL-23; rhIL-23
T1 sequence 1: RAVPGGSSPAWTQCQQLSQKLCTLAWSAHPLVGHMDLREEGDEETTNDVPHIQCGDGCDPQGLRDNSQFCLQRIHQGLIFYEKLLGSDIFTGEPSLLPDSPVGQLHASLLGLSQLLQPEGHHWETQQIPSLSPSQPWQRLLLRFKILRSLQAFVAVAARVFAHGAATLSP
T1 sequence 2: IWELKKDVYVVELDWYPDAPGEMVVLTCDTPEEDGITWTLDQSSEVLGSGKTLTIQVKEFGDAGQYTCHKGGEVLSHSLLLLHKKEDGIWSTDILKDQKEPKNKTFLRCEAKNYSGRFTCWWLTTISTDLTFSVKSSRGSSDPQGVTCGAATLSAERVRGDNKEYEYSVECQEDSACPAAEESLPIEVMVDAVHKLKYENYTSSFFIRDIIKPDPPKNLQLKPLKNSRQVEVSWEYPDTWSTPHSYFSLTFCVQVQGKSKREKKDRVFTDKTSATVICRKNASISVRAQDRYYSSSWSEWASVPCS

T2: Human IL-18 (human, UniProt Q14116 37-193)
T2 construct: Recombinant, made in-house; In the BLI assay the loaded cytokine was captured on anti-Penta His sensors, so a His tag is implied but not described; also called recombinant human IL-18; interleukin 18
T2 sequence: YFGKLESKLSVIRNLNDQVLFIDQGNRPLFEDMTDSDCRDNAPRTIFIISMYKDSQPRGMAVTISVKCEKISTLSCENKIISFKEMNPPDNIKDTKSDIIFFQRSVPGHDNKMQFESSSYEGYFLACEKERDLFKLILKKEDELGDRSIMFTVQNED

T3: Cynomolgus monkey IL-18 (Rhesus monkey (identical to cynomolgus …, UniProt Q9BGI5 37-193))
T3 sequence: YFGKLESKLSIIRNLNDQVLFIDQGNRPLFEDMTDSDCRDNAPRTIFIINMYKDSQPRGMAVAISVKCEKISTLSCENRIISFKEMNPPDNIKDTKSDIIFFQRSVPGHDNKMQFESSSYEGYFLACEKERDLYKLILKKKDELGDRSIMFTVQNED


Key:
Human IL-23 [1] = molecular target: T1, Human IL-23; assay: SPR (Biacore), antibody captured on Protein A/G, cytokine as analyte, 25 C, 1:1 fit, n=1
Procedure: (§1) A heterodimeric bsAb, alongside anti-IL-18 and anti-IL-23 common light chain control bispecific antibodies, were assessed for binding to human and cyno IL-18 and IL-23, using the Biacore 8K and T200 (Cytiva) surface plasmon resonance (SPR) instruments. All reagents were generated recombinantly in-house with the exception of Rhesus monkey IL-18 which was purchased from R&D systems (Cat #2548-RM-025/CF). Rhesus and cynomolgus monkey amino acid sequences are identical. Therefore, the protein will be referred to as cynomolgus monkey IL-18.
(§2) Heterodimeric bsAb, anti-IL-18 and anti-IL-23 common light chain bispecific control molecules were assessed for binding to recombinant human and cynomolgus monkey IL-18 and IL-23 using the Biacore 8K and T200 (Cytiva) SPR instruments. The antibodies were captured onto Protein A/G, which was immobilised onto flow cell 2 of 8 channels (Biacore 8K) or flow cells 2, 3 and 4 (Biacore T200) of a CM5 series S sensor chip by primary amine coupling. The IL-18 or IL-23 analytes were passed over the captured antibodies at varying concentrations between 0.04-25 nM. The association phase was for 240 seconds at 30 μl/min, followed by a dissociation step of up to 1200 seconds. A 0 nM (i.e., buffer alone) injection was used to double reference the binding curves. Regeneration of the chip surface between cycles was carried out using 50 mM NaOH. The assay was run at 25° C. in HBS-EP⁺ buffer. Biacore 8K control software version 3.0 was used to run the experiment. Data was analysed using Biacore 8K Insight evaluation software version 3.0. Biacore T200 control software version 1.0 was used to run the experiment. Data was analysed using Biacore T200 evaluation software version 2.0. Affinities and kinetics were determined using the 1:1 kinetic fit inherent to the software where possible. All affinity values generated using both instruments were combined to determine geometric mean values.

Human IL-18 [2] = molecular target: T2, Human IL-18; assay: as above
Procedure: as §1, §2

Human IL-18 [3] = molecular target: T2, Human IL-18; assay: cell-based or functional assay
Human IL-18 [4] = molecular target: T2, Human IL-18; assay: cell-based or functional assay; remark: listed apart in the source
Human IL-23 [5] = molecular target: T1, Human IL-23; assay: cell-based or functional assay
Human IL-23 [6] = molecular target: T1, Human IL-23; assay: cell-based or functional assay; remark: listed apart in the source
Human IL-18 [7] = molecular target: T2, Human IL-18; assay: cell-based or functional assay; remark: listed apart in the source
Cynomolgus monkey IL-18 = molecular target: T3, Cynomolgus monkey IL-18; assay: cell-based or functional assay

| Binder | Kd (Human IL-23 [1]) [pM] | Kd (Human IL-18 [2]) [pM] | IC50 (pM, Mean), neutralisation of human IL-18-induced IFNγ secretion by KG-1 cells (Human IL-18 [3]) [pM] | pIC50 (GeoMean), neutralisation of human IL-18-induced IFNγ secretion by KG-1 cells (Human IL-18 [3]) | IC50 Heterodimeric bsAbs (% of Parent IL-18 control 3), LPS + IL12-induced IFN-γ in human whole blood (Human IL-18 [4]) | IC50 Heterodimeric bsAbs (nM), inhibition of LPS + IL12-induced IFN-γ in human whole blood (Human IL-18 [4]) [nM] | IC50 Heterodimeric bsAb (% of Parent IL-23 control 2), IL-23-induced mouse IL-17A in mouse splenocytes (Human IL-23 [5]) | IC50 Heterodimeric bsAb (pM), inhibition of human IL-23-induced mouse IL-17A secretion in mouse splenocytes (Human IL-23 [5]) [pM] | IC50 Heterodimeric bsAbs (% of Parent IL-23 control 2), IL-23-induced pSTAT3 in T cells of human whole blood (Human IL-23 [6]) | IC50 Heterodimeric bsAbs (pM), inhibition of IL-23-induced pSTAT3 in CD3+CD161+ T cells of human whole blood (Human IL-23 [6]) [pM] | IC50 (pM, Mean), neutralisation of human IL-18-induced IFNγ secretion by KG-1 cells (Human IL-18 [7]) [pM] | pIC50 (GeoMean), neutralisation of human IL-18-induced IFNγ secretion by KG-1 cells (Human IL-18 [7]) | IC50 (pM, Mean), neutralisation of cynomolgus IL-18-induced IFNγ secretion by KG-1 cells (Cynomolgus monkey IL-18) [pM] | pIC50 (GeoMean), neutralisation of cynomolgus IL-18-induced IFNγ secretion by KG-1 cells (Cynomolgus monkey IL-18) |
| --- | --- | --- | --- | --- | --- | --- | --- | --- | --- | --- | --- | --- | --- | --- |
| Heterodimeric bsAb 1 (bispecific antibody, human IgG1, kappa, Het-mAb format: anti-IL-18 mAb on ZA and anti-IL-23 mAb (risankizumab) on ZB, with Fc heterodimerisation and silencing mutations; Expressed transiently in HEK293 6E cells) heavy 1: QVQLVQSGAEVKKPGASVKVSCKVSGEISTGYYFHWVRQAPGKGLEWMGRIDPEDDSTKYAERFKDRVTMTEDTSTDTAYMELSSLRSEDTAVYYCTTWRIYRDSSGRPFYVMDAWGQGTLVTVSSASTKGPSVFPLAPSSKSTSGGTAALGCEVTDYFPEPVTVSWNSGALTSGVHTFPAVLESSGLYSLSSVVTVPSSSLGTQTYICNVNHKPSNTKVDKKVEPKSCDKTHTCPPCPAPELAGAPSVFLFPPKPKDTLMISRTPEVTCVVVDVSHEDPEVKFNWYVDGVEVHNAKTKPREEQYNSTYRVVSVLTVLHQDWLNGKEYKCKVSNKALPAPIEKTISKAKGQPREPQVYVYPPSRDELTKNQVSLTCLVKGFYPSDIAVEWESNGQPENNYKTTPPVLDSDGSFALVSKLTVDKSRWQQGNVFSCSVMHEALHNHYTQKSLSLSPGK light 1: DIQMTQSPSSVSASVGDRVTITCLASEDIYTYLTWYQQKPGKAPKLLIYGANKLQDGVPSRFSGSGSGTDYTLTISSLQPEDFATYYCLQGSKFPLTFGQGTKLEIKRTVAAPSVFIFPPSDERLKSGTASVVCLLNNFYPREAKVQWKVDNALQSGNSQESVTEQDSKDSTYSLSSRLTLSKADYEKHKVYACEVTHQGLSSPVTKSFNRGEC heavy 2: QVQLVQSGAEVKKPGSSVKVSCKASGYTFTDQTIHWMRQAPGQGLEWIGYIYPRDDSPKYNENFKGKVTITADKSTSTAYMELSSLRSEDTAVYYCAIPDRSGYAWFIYWGQGTLVTVSSASTKGPSVFPLAPSSKSTSGGTAALGCRVKDYFPEPVTVSWNSGALTSGVHTFPAVLQSSGLYSLSSVVTVPSSSLGTQTYICNVNHKPSNTKVDKKVEPKSCDKTHTCPPCPAPELAGAPSVFLFPPKPKDTLMISRTPEVTCVVVDVSHEDPEVKFNWYVDGVEVHNAKTKPREEQYNSTYRVVSVLTVLHQDWLNGKEYKCKVSNKALPAPIEKTISKAKGQPREPQVYVLPPSRDELTKNQVSLLCLVKGFYPSDIAVEWESNGQPENNYLTWPPVLDSDGSFFLYSKLTVDKSRWQQGNVFSCSVMHEALHNHYTQKSLSLSPGK light 2: DIQMTQSPSSLSASVGDRVTITCKASRDVAIAVAWYQQKPGKVPKLLIYWASTRHTGVPSRFSGSGSRTDFTLTISSLQPEDVADYFCHQYSSYPFTFGSGTKLEIKRTVAAPSVFIFPPSDEELKSGTASVECLLNNFYPREAKVQWKVDNALQSGNSQESVTEQDSKDSTYSLSSTLTLSKADYEKHKVYACEVTHQGLSSPVTKSFNRGEC | 374 | < 10 | 133 | 9.88 | 191 % of Parent | 16 | 254 % of Parent | 153 | 218 % of Parent | 615 |  |  |  |  |
| Heterodimeric bsAb 2 (bispecific antibody, human IgG1, kappa, Het-mAb format: anti-IL-23 mAb (risankizumab) on ZA and anti-IL-18 mAb on ZB, with Fc heterodimerisation and silencing mutations) heavy 1: QVQLVQSGAEVKKPGSSVKVSCKASGYTFTDQTIHWMRQAPGQGLEWIGYIYPRDDSPKYNENFKGKVTITADKSTSTAYMELSSLRSEDTAVYYCAIPDRSGYAWFIYWGQGTLVTVSSASTKGPSVFPLAPSSKSTSGGTAALGCRVKDYFPEPVTVSWNSGALTSGVHTFPAVLQSSGLYSLSSVVTVPSSSLGTQTYICNVNHKPSNTKVDKKVEPKSCDKTHTCPPCP light 1: DIQMTQSPSSLSASVGDRVTITCKASRDVAIAVAWYQQKPGKVPKLLIYWASTRHTGVPSRFSGSGSRTDFTLTISSLQPEDVADYFCHQYSSYPFTFGSGTKLEIKRTVAAPSVFIFPPSDEELKSGTASVECLLNNFYPREAKVQWKVDNALQSGNSQESVTEQDSKDSTYSLSSTLTLSKADYEKHKVYACEVTHQGLSSPVTKSFNRGEC heavy 2: QVQLVQSGAEVKKPGASVKVSCKVSGEISTGYYFHWVRQAPGKGLEWMGRIDPEDDSTKYAERFKDRVTMTEDTSTDTAYMELSSLRSEDTAVYYCTTWRIYRDSSGRPFYVMDAWGQGTLVTVSSASTKGPSVFPLAPSSKSTSGGTAALGCEVTDYFPEPVTVSWNSGALTSGVHTFPAVLESSGLYSLSSVVTVPSSSLGTQTYICNVNHKPSNTKVDKKVEPKSCDKTHTCPPCPAPELAGAPSVFLFPPKPKDTLMISRTPEVTCVVVDVSHEDPEVKFNWYVDGVEVHNAKTKPREEQYNSTYRVVSVLTVLHQDWLNGKEYKCKVSNKALPAPIEKTISKAKGQPREPQVYVLPPSRDELTKNQVSLLCLVKGFYPSDIAVEWESNGQPENNYLTWPPVLDSDGSFFLYSKLTVDKSRWQQGNVFSCSVMHEALHNHYTQKSLSLSPGK light 2: DIQMTQSPSSVSASVGDRVTITCLASEDIYTYLTWYQQKPGKAPKLLIYGANKLQDGVPSRFSGSGSGTDYTLTISSLQPEDFATYYCLQGSKFPLTFGQGTKLEIKRTVAAPSVFIFPPSDERLKSGTASVVCLLNNFYPREAKVQWKVDNALQSGNSQESVTEQDSKDSTYSLSSRLTLSKADYEKHKVYACEVTHQGLSSPVTKSFNRGEC | 158 | < 10 | 77.6 | 10.1 | 240 % of Parent | 18.2 | 274 % of Parent | 147 | 249 % of Parent | 711 |  |  |  |  |
| IL-18 control 2 (antibody, V domains shown) VH: QVQLVQSGAEVKKPGASVKVSCKVSGEISTGYYFHWVRQAPGKGLEWMGRIDPEDDSTKYAERFKDRVTMTEDTSTDTAYMELSSLRSEDTAVYYCTTWRIYRDSSGRPFYVMDAWGQGTLVTVSS VL: DIQMTQSPSSVSASVGDRVTITCLASEDIYTYLTWYQQKPGKAPKLLIYGANKLQDGVPSRFSGSGSGTDYTLTISSLQPEDFATYYCLQGSKFPLTFGQGTKLEIK |  |  | 41 | 10.4 |  |  |  |  |  |  | 39.8 | 10.4 | 64.6 | 10.2 |
